Measured values: patent US20190016799A1 (HANGZHOU SUMGEN BIOTECHNOLOGY, published 2019)
Read-outs that look alike come from different tables or passages of the source.

Assays:
[1] = target: T1, hPD1-Fc (fusion protein of human PD-1 protein extracellular segment-human IgG1 Fc fragment) (human, UniProt Q15116 25-170); experiment: ELISA, plate coated with hPD1-Fc 1 ug/ml, detection with GAH-Fab-HRP, OD450
T1 construct: extracellular domain; Expressed in CHO-K1 cells; also called hPD1-FC-Biotin (biotin-labeled form); not shown: human IgG1 Fc fragment

[2] = target: T1, hPD1-Fc (fusion protein of human PD-1 …); experiment: as above; remark: listed apart in the source
monkey PD1 = target: T2, monkey PD1 (monkey); experiment: ELISA, plate coated with monkey PD1 1 ug/ml, detection with GAH-Fab-HRP, OD450
T2 construct: Bought protein; also called monkey PD1 protein; monkey PD1 antigen

[3] = target: T1, hPD1-Fc (fusion protein of human PD-1 …); experiment: SPR (BIACORE), antibody captured by anti-human IgG-Fab, hPD1-FC as analyte at 3.125-100 nM
Procedure: (§1) The antibody affinity was analyzed using BIACORE Biomacromolecular Interaction Device (GE).

[4] = target: T1, hPD1-Fc (fusion protein of human PD-1 …); experiment: blocking ELISA: hPDL1 coated at 1 ug/mL, hPD1-FC-Biotin 5 ug/mL, antibody titrated from 500 ug/mL
Procedure: (§2) The plate was washed 3 times with a washing solution repeatedly, added with HRP-labeled avidin, and placed in the dark at room temperature (20±5° C.) for 45 minutes. The plate was washed 5 times with a washing solution repeatedly, and patted on a drying paper to dry out the residual droplets as possible; added with 100 μl of TMB to each well, and placed in the dark for 3 min at room temperature (20±5° C.); 100 μl of 2N H₂SO₄ stop solution was added to each well to stop the substrate reaction, and the microplate reader was read at 450 nm for the OD value.

BTLA = target: T3, BTLA (UniProt Q7Z6A9 31-157, limits assumed); experiment: ELISA, plate coated with BTLA 1 ug/ml, detection with GAH-Fab-HRP, OD450; antibody concentration not shown on the sheet
T3 construct: Bought protein

CD28 = target: T4, CD28 (UniProt P10747 19-152); experiment: ELISA, plate coated with CD28 1 ug/ml, detection with GAH-Fab-HRP, OD450; antibody concentration not shown on the sheet
T4 construct: Bought protein

ICOS = target: T5, ICOS (UniProt Q9Y6W8 21-140, limits assumed); experiment: ELISA, plate coated with ICOS 1 ug/ml, detection with GAH-Fab-HRP, OD450; antibody concentration not shown on the sheet
T5 construct: Bought protein
T5 sequence (looked up): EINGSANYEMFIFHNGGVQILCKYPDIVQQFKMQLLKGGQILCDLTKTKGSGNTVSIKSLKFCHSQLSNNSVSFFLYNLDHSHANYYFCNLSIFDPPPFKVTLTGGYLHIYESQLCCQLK

CTLA4 = target: T6, CTLA4 (UniProt P16410 36-162); experiment: ELISA, plate coated with CTLA4 1 ug/ml, detection with GAH-Fab-HRP, OD450; antibody concentration not shown on the sheet
T6 construct: Bought protein

[5] = target: T1, hPD1-Fc (fusion protein of human PD-1 …); experiment: competition ELISA, plate coated with hPD1-FC 1 µg/mL, competitor BMS01-Biotin 0.5 µg/mL, detection with HRP-avidin, OD450
Procedure: as §2

[6] = target: T1, hPD1-Fc (fusion protein of human PD-1 …); experiment: SPR (BIACORE), antibody captured by anti-human IgG-Fab on the chip, hPD1-FC as mobile phase at 3.125-100 nM; the text's value is tenfold above Table 1
Procedure: as §1

T1 sequence (Q15116 25-170): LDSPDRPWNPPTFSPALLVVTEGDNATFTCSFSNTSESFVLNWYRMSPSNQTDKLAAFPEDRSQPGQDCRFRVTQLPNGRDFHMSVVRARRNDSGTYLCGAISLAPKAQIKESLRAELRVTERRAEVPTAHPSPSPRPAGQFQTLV
T6 sequence (P16410 36-162 limits assumed): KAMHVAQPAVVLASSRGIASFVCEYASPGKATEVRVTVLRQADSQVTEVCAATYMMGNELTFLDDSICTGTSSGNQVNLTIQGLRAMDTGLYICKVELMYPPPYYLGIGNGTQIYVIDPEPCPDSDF

EC50 (read off the curve) [1]: ~0.05 µg/mL
EC50 (read off the curve) [2]: ~0.03 µg/mL
EC50 (read off the curve) (monkey PD1): ~0.03 µg/mL
Kd [3]: 0.215 nM
koff [3]: 6.85e-05 s⁻¹
kon [3]: 318000 M⁻¹ s⁻¹
IC50 [4]: 1.47 µg/mL
binding result (BTLA): no binding
binding result (CD28): no binding
binding result (ICOS): no binding
binding result (CTLA4): no binding
IC50 (read off the curve) [5]: ~30 µg/mL
Kd [6]: 0.215 nM
B1: SG001 antibody (antibody, human IgG1, kappa, V domains shown)
VH: QVQLVESGGGVVQPGRSLRLTCKASGLTFSSSGMHWVRQAPGKGLEWVAVIWYDGSKRYYADSVKGRFTISRDNSKNTLFLQMNSLRAEDTAVYYCATNNDYWGQGTLVTVSS
VL: EIVLTQSPATLSLSPGERATLSCRASQSVSSYLAWYQQKPGQAPRLLIYTASNRATGIPARFSGSGSGTDFTLTISSLEPEDFAVYYCQQYSNWPRTFGQGTKVEIKR
